Test results: paper PMC10786891, “Massively parallel profiling of RNA-targeting CRISPR-Cas13d”

T1: EsCas13d, nuclease-dead (Eubacterium siraeum, UniProt B0MS50, R295A;H300A;R849A;H854A)
T1 sequence: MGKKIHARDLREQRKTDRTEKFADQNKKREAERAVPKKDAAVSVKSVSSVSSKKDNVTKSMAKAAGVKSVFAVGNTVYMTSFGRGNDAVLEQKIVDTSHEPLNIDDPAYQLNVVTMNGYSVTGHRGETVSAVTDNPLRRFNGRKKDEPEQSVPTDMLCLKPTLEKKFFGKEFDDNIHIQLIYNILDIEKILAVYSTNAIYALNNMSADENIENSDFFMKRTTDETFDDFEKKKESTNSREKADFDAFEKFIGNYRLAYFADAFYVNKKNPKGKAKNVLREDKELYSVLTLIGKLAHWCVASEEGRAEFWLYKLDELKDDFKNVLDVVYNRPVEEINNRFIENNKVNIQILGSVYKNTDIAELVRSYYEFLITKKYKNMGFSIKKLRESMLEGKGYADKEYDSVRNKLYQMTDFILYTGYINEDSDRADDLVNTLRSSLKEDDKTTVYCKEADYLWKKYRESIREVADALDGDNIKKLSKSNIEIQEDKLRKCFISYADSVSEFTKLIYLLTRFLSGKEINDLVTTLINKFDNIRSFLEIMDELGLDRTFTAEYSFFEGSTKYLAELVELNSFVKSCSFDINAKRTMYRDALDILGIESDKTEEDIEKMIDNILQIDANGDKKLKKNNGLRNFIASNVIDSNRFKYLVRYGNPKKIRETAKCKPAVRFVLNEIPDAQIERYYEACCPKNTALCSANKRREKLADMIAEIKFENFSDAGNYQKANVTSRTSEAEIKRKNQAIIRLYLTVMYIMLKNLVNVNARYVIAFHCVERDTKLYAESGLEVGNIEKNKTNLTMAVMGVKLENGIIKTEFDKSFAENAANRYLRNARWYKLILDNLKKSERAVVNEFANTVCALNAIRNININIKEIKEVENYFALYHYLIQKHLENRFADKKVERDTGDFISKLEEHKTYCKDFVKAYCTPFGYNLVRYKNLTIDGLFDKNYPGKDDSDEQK

B1: target 1 insU 3' of 15,insU 3' of 6 (mixed)
RNA 1: CACCCGUGCAAAAAUGCAGGGGUCUAAAACUGAGCGGAUAACCUCUCUAUGG
RNA 2: GGGAAUGGAUCCACAUCUACGAAUUCGUACCAUAGAGUAGGUUAUCCUGCUCACCGAGAUCGGAAGAGCACACGU
B2: target 1 insA 3' of 4,insU 3' of 2 (mixed)
RNA 1: CACCCGUGCAAAAAUGCAGGGGUCUAAAACUGAGCGGAUAACCUCUCUAUGG
RNA 2: GGGAAUGGAUCCACAUCUACGAAUUCGUACCAUAGAGAGGUUAUCCGCAUCUACCGAGAUCGGAAGAGCACACGU
B3: target 1 A1C,C7U (mixed)
RNA 1: CACCCGUGCAAAAAUGCAGGGGUCUAAAACUGAGCGGAUAACCUCUCUAUGG
RNA 2: GGGAAUGGAUCCACAUCUACGAAUUCGUACCAUAGAGAGGUUAUUCGCUCCCCGAGAUCGGAAGAGCACACGU
B4: target 1 C4G,C22G (mixed)
RNA 1: CACCCGUGCAAAAAUGCAGGGGUCUAAAACUGAGCGGAUAACCUCUCUAUGG
RNA 2: GGGAAUGGAUCCACAUCUACGAAUUCGUAGCAUAGAGAGGUUAUCCGGUCACCGAGAUCGGAAGAGCACACGU
B5: target 1 insU 3' of 22,insG 3' of 3 (mixed)
RNA 1: CACCCGUGCAAAAAUGCAGGGGUCUAAAACUGAGCGGAUAACCUCUCUAUGG
RNA 2: GGGAAUGGAUCCACAUCUACGAAUUCGUACUCAUAGAGAGGUUAUCCGCUGCACCGAGAUCGGAAGAGCACACGU
B6: target 1 insC 3' of 22,insG 3' of 20 (mixed)
RNA 1: CACCCGUGCAAAAAUGCAGGGGUCUAAAACUGAGCGGAUAACCUCUCUAUGG
RNA 2: GGGAAUGGAUCCACAUCUACGAAUUCGUACCCAGUAGAGAGGUUAUCCGCUCACCGAGAUCGGAAGAGCACACGU
B7: target 1 insC 3' of 10,insU 3' of 2 (mixed)
RNA 1: CACCCGUGCAAAAAUGCAGGGGUCUAAAACUGAGCGGAUAACCUCUCUAUGG
RNA 2: GGGAAUGGAUCCACAUCUACGAAUUCGUACCAUAGAGAGGUUCAUCCGCUCUACCGAGAUCGGAAGAGCACACGU
B8: target 1 A1U,C7U (mixed)
RNA 1: CACCCGUGCAAAAAUGCAGGGGUCUAAAACUGAGCGGAUAACCUCUCUAUGG
RNA 2: GGGAAUGGAUCCACAUCUACGAAUUCGUACCAUAGAGAGGUUAUUCGCUCUCCGAGAUCGGAAGAGCACACGU
B9: target 1 insC 3' of 22,insU 3' of 21 (mixed)
RNA 1: CACCCGUGCAAAAAUGCAGGGGUCUAAAACUGAGCGGAUAACCUCUCUAUGG
RNA 2: GGGAAUGGAUCCACAUCUACGAAUUCGUACCCUAUAGAGAGGUUAUCCGCUCACCGAGAUCGGAAGAGCACACGU
B10: target 1 insA 3' of 22,insG 3' of 4 (mixed)
RNA 1: CACCCGUGCAAAAAUGCAGGGGUCUAAAACUGAGCGGAUAACCUCUCUAUGG
RNA 2: GGGAAUGGAUCCACAUCUACGAAUUCGUACACAUAGAGAGGUUAUCCGCGUCACCGAGAUCGGAAGAGCACACGU
B11: target 1 G13A,G15C (mixed)
RNA 1: CACCCGUGCAAAAAUGCAGGGGUCUAAAACUGAGCGGAUAACCUCUCUAUGG
RNA 2: GGGAAUGGAUCCACAUCUACGAAUUCGUACCAUAGACAAGUUAUCCGCUCACCGAGAUCGGAAGAGCACACGU
B12: target 1 insG 3' of 6,insU 3' of 5 (mixed)
RNA 1: CACCCGUGCAAAAAUGCAGGGGUCUAAAACUGAGCGGAUAACCUCUCUAUGG
RNA 2: GGGAAUGGAUCCACAUCUACGAAUUCGUACCAUAGAGAGGUUAUCCGGUCUCACCGAGAUCGGAAGAGCACACGU
B13: target 1 insG 3' of 16,insU 3' of 5 (mixed)
RNA 1: CACCCGUGCAAAAAUGCAGGGGUCUAAAACUGAGCGGAUAACCUCUCUAUGG
RNA 2: GGGAAUGGAUCCACAUCUACGAAUUCGUACCAUAGAGGAGGUUAUCCGUCUCACCGAGAUCGGAAGAGCACACGU
B14: target 1 insC 3' of 12,insU 3' of 6 (mixed)
RNA 1: CACCCGUGCAAAAAUGCAGGGGUCUAAAACUGAGCGGAUAACCUCUCUAUGG
RNA 2: GGGAAUGGAUCCACAUCUACGAAUUCGUACCAUAGAGAGGCUUAUCCUGCUCACCGAGAUCGGAAGAGCACACGU
B15: target 1 insU 3' of 5,insC 3' of 1 (mixed)
RNA 1: CACCCGUGCAAAAAUGCAGGGGUCUAAAACUGAGCGGAUAACCUCUCUAUGG
RNA 2: GGGAAUGGAUCCACAUCUACGAAUUCGUACCAUAGAGAGGUUAUCCGUCUCACCCGAGAUCGGAAGAGCACACGU
B16: target 1 insC 3' of 18,insG 3' of 9 (mixed)
RNA 1: CACCCGUGCAAAAAUGCAGGGGUCUAAAACUGAGCGGAUAACCUCUCUAUGG
RNA 2: GGGAAUGGAUCCACAUCUACGAAUUCGUACCAUACGAGAGGUUAGUCCGCUCACCGAGAUCGGAAGAGCACACGU
B17: target 1 insG 3' of 16,insG 3' of 6 (mixed)
RNA 1: CACCCGUGCAAAAAUGCAGGGGUCUAAAACUGAGCGGAUAACCUCUCUAUGG
RNA 2: GGGAAUGGAUCCACAUCUACGAAUUCGUACCAUAGAGGAGGUUAUCCGGCUCACCGAGAUCGGAAGAGCACACGU
B18: target 1 insC 3' of 13,insC 3' of 3 (mixed)
RNA 1: CACCCGUGCAAAAAUGCAGGGGUCUAAAACUGAGCGGAUAACCUCUCUAUGG
RNA 2: GGGAAUGGAUCCACAUCUACGAAUUCGUACCAUAGAGAGCGUUAUCCGCUCCACCGAGAUCGGAAGAGCACACGU
B19: target 1 insU 3' of 5,insA 3' of 2 (mixed)
RNA 1: CACCCGUGCAAAAAUGCAGGGGUCUAAAACUGAGCGGAUAACCUCUCUAUGG
RNA 2: GGGAAUGGAUCCACAUCUACGAAUUCGUACCAUAGAGAGGUUAUCCGUCUCAACCGAGAUCGGAAGAGCACACGU
B20: target 1 C2A,C22U (mixed)
RNA 1: CACCCGUGCAAAAAUGCAGGGGUCUAAAACUGAGCGGAUAACCUCUCUAUGG
RNA 2: GGGAAUGGAUCCACAUCUACGAAUUCGUAUCAUAGAGAGGUUAUCCGCUAACCGAGAUCGGAAGAGCACACGU
B21: target 1 insG 3' of 7,insG 3' of 4 (mixed)
RNA 1: CACCCGUGCAAAAAUGCAGGGGUCUAAAACUGAGCGGAUAACCUCUCUAUGG
RNA 2: GGGAAUGGAUCCACAUCUACGAAUUCGUACCAUAGAGAGGUUAUCGCGCGUCACCGAGAUCGGAAGAGCACACGU
B22: target 1 U3A,U19G (mixed)
RNA 1: CACCCGUGCAAAAAUGCAGGGGUCUAAAACUGAGCGGAUAACCUCUCUAUGG
RNA 2: GGGAAUGGAUCCACAUCUACGAAUUCGUACCAGAGAGAGGUUAUCCGCACACCGAGAUCGGAAGAGCACACGU
B23: target 1 insA 3' of 15,insA 3' of 5 (mixed)
RNA 1: CACCCGUGCAAAAAUGCAGGGGUCUAAAACUGAGCGGAUAACCUCUCUAUGG
RNA 2: GGGAAUGGAUCCACAUCUACGAAUUCGUACCAUAGAGAAGGUUAUCCGACUCACCGAGAUCGGAAGAGCACACGU
B24: target 1 C2U,A18U (mixed)
RNA 1: CACCCGUGCAAAAAUGCAGGGGUCUAAAACUGAGCGGAUAACCUCUCUAUGG
RNA 2: GGGAAUGGAUCCACAUCUACGAAUUCGUACCAUUGAGAGGUUAUCCGCUUACCGAGAUCGGAAGAGCACACGU

Target: T1, EsCas13d, nuclease-dead
Experiment: crRNA (strand 1, pre-loaded); Mg2+; 40 mM Tris-HCl pH 7.5, 150 mM NaCl, 6 mM MgCl2, 1 mM DTT, 0.1% Tween-20, 0.2 mg/ml BSA; 25 C; 10 min per concentration, then washed
Details: tags: His6-TwinStrep-SUMO cleaved; N-terminal SNAP kept (SNAP-Surface 488); label: 3' end held by stalled T7 RNA polymerase

Going from B1 to B2, the Kd falls from 35.6 ± 3.2 nM to 9.4 ± 0.9 nM (3.8-fold).

Going from B3 to B4, the Kd rises from 9.6 ± 0.9 nM to 16.1 ± 2.3 nM (1.7-fold).

B5 and B6 are within error of each other in Kd: 25.3 ± 1.7 nM for the first, 23.2 ± 2.3 nM for the second.

First: B7
Second: B8
The Kd of the first is 2.6-fold higher: 23.9 ± 2.3 nM for the first, 9.1 ± 1.3 nM for the second.

First: B9
Second: B10
The Kd of the first is 1.8-fold higher: 17.1 ± 1 nM for the first, 9.6 ± 0.6 nM for the second.

Compared with B11, B12 is 6.4-fold lower in Kd: 36 ± 9 nM for the first, 5.6 ± 0.6 nM for the second. The second binds more tightly here.

B13 and B14 are within error of each other in Kd: 15.5 ± 1.4 nM for the first, 16.4 ± 0.7 nM for the second.

Compared with B15, B16 is 2.7-fold higher in Kd: 21.6 ± 2.4 nM for the first, 59 ± 11 nM for the second. The first binds more tightly here.

Compared with B17, B18 is 1.8-fold lower in Kd: 24.3 ± 1.9 nM for the first, 13.8 ± 0.7 nM for the second. The second binds more tightly here.

Going from B19 to B20, the Kd rises from 11 ± 0.5 nM to about 30 nM (2.7-fold).

First: B21
Second: B22
The Kd of the first is 8-fold lower: 6.23 ± 0.3 nM for the first, 50 ± 5 nM for the second. The first binds more tightly here.

B23 and B24 are within 1.5-fold of each other in Kd: 15.9 ± 2 nM for the first, 21.2 ± 1.5 nM for the second.
